Measurements from patent US20180044393A1 (INSERM INSTITUT NATIONAL DE LA SANT ET DE LA RECHERCHE M …, published 2018).
Positions of bridges follow the written chain, without caps; N, C: chain ends. No end group written: not given here. *: point of attachment. 125I = [125I]*

Assays:
Experiment in all cases: 125I-OxA binding on CHO-S cells expressing the OX1R mutant
[1] = biological target: T1, OX1R I98A (human, UniProt O43613 1-425)
T1 construct: site-directed mutant (TM2) stably expressed in CHO-S cells; not shown: YFP from vector pEYFP-N2 fused at the C-terminus
T1 chain: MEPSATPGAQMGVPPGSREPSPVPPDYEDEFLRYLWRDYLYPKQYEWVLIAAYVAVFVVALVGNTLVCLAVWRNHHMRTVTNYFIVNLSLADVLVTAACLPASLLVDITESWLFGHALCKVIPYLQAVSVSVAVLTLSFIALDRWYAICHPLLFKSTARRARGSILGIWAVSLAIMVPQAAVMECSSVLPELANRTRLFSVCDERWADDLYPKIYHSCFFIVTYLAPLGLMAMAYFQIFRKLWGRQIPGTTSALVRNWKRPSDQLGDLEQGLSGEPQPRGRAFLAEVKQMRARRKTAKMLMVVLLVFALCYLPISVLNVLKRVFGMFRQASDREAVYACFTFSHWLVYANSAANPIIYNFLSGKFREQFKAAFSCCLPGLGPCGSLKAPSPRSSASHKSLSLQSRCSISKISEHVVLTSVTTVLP
Experimental: (§1) CHO—S cells expressing recombinant native or mutated OX1R were grown as previously described (El Firar et al., 2009) and maintained at 37° C. in a humidified 5% CO₂/air incubator. ¹²⁵I-orexia-A (74 TBq/mmol) was prepared as previously described (El Firar et al., 2009). […] Free peptides were removed by 2 cell washing cycles with PBS. […] Data were analyzed using the GraphPad software (http://www.graphpad.com).
(§2) All residues of OX1R fulfilling this condition were mutated to alanine by site-directed mutagenesis (Table II).

[2] = biological target: T2, OX1R C99A (human, UniProt O43613 1-425)
T2 construct: site-directed mutant (TM2) stably expressed in CHO-S cells; not shown: YFP from vector pEYFP-N2 fused at the C-terminus
T2 chain: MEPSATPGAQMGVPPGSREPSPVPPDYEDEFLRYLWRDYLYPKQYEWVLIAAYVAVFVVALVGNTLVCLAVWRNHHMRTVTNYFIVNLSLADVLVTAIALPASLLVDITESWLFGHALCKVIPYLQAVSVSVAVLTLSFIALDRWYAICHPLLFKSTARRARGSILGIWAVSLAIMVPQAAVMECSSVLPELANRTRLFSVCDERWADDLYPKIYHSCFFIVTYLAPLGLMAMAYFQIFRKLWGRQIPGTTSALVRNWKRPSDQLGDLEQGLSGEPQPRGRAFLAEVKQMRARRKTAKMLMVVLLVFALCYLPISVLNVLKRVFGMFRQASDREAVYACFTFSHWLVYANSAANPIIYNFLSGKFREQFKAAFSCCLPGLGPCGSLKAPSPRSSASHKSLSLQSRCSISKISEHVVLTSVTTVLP
Experimental: as §1, §2

[3] = biological target: T3, OX1R V319A (human, UniProt O43613 1-425)
T3 construct: site-directed mutant (TM6) stably expressed in CHO-S cells; not shown: YFP from vector pEYFP-N2 fused at the C-terminus
T3 chain: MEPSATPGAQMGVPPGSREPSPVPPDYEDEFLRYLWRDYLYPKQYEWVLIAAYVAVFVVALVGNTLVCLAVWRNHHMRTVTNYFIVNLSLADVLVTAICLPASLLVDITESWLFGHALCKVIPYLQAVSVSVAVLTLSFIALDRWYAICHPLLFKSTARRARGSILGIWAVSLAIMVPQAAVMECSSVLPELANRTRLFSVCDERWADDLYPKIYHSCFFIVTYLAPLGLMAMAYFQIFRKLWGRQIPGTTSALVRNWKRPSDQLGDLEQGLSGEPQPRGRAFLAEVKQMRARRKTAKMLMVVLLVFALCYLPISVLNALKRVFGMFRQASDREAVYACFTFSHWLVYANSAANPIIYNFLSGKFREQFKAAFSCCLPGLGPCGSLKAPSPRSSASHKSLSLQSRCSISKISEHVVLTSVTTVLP
Experimental: as §1, §2

[4] = biological target: T4, OX1R K321A (human, UniProt O43613 1-425)
T4 construct: site-directed mutant (TM6) stably expressed in CHO-S cells; not shown: YFP from vector pEYFP-N2 fused at the C-terminus
T4 chain: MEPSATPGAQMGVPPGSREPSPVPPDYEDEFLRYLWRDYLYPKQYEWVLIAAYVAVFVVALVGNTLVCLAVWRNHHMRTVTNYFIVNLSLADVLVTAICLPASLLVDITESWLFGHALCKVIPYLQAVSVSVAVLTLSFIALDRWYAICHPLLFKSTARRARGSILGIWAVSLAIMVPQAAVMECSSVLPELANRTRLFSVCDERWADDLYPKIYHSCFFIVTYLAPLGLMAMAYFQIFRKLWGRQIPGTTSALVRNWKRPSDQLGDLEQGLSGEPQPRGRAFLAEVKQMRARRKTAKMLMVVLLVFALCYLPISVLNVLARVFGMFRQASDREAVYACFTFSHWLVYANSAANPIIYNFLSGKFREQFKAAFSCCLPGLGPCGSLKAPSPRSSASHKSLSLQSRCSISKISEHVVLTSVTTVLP
Experimental: as §1, §2

[5] = biological target: T5, OX1R Y348A (human, UniProt O43613 1-425)
T5 construct: site-directed mutant (TM7) stably expressed in CHO-S cells; not shown: YFP from vector pEYFP-N2 fused at the C-terminus
T5 chain: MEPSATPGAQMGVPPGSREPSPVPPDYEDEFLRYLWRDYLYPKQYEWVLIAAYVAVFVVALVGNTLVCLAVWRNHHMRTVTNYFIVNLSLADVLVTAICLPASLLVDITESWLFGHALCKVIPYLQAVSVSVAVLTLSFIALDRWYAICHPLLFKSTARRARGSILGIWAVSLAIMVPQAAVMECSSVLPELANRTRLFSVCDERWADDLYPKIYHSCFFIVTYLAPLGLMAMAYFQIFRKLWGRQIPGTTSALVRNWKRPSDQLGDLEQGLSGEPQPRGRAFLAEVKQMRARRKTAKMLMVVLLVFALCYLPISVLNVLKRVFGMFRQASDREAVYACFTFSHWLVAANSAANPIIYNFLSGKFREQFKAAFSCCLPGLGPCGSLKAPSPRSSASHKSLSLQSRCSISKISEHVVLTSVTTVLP
Experimental: as §1, §2

Measured: binding result

B1: 125I-orexin-A (peptide, UniProt O43612 34-66, looked up)
peptide: QPLPDCCRQKTCSCRLY(125I)ELLHGAGNHAAGILTL
modifications: disulfide 6-12, 7-14; not fully specified (residue 1, C-terminus)
notes: mature; also called OxA
binds: all assays above
